From patent publication US9598483B2, “Monoclonal antibody binding specifically to DLL4 and use thereof” (ABLBIO, priority 2012, dated 2017) come the findings set out here.

The subject of assay [1] is DLL4/Notch signaling pathway. The assay is described as follows: Western blotting of NICD in HUVECs on rhDLL4-coated plate (DLL4/Notch signaling pathway). The format is cell-based, human. Conditions: 20 μg/ml MLCK-2 mAb. The source says: In Notch signaling, when DLL4 binds to a Notch receptor, this causes a […] change in the Notch receptor leading to the cleavage thereof, and then an intracellular domain of Notch (NICD) enters the nucleus and mediates a Notch signaling. In this regard, it was confirmed whether the anti-DLL4 antibody of the present invention could inhibit the binding between DLL4 and a Notch receptor, thereby disrupting the Notch signaling through monitoring the inhibition of a Notch receptor cleavage as below.
To be specific, in order to determine the inhibitory activity of the DLL4-binding antibodies against the DLL4/Notch signaling pathway, the inhibition of signaling pathway in HUVECs was analyzed in the present experiment. One day before conducting experiment, a recombinant human DLL4 (rhDLL4, R&D systems) was diluted with carbonate buffer to a final concentration of 1 μg/ml, and then 1 ml/well of the diluted rhDLL4 was added to a 6-well plate (BD) and incubated at 4° C. overnight. […]
Subsequently, the plate was put on ice and HUVECs were collected from each well using a scraper and put into a 1.5 ml tube and stored in ice. […] For SDS-PAGE analysis, the supernatant was added to 5×SDS sample buffer and boiled at 100° c. for 10 minutes analyzed by SDS-PAGE. […]
(In general: A western blot detects proteins with antibodies after separation by electrophoresis.)

Assay [2] deals with human umbilical vein endothelial cell (HUVEC). The assay is described as follows: HUVEC proliferation assay on rhDLL4-coated plate (CCK-8). Particulars: rhDLL4-coated plate 1 μg/ml; MLCK-2 mAb 20 μg/ml; 96 hours. The format is cell-based. The protocol:
In order to investigate the effect of DLL4-binding antibodies on proliferation of human umbilical vein endothelial cell (HUVEC), a representative anti-DLL4 antibody, MLCK-2 antibody, was analyzed for the effect thereof on proliferation of HUVEC.
To be specific, human umbilical vein endothelial cell (HUVEC) was purchased from Lonza to be used in this experiment. T-flask (Nunc) was coated with PBS buffer (Gibco) added with 1% gelatin (Sigma) at a room temperature for 4 to 6 hours, washed with PBS, and then it was used for culturing HUVECs. EBM-2 (Lonza) supplemented with EGM-2 Single Quot (Lonza) was used as a culture medium, density of a cell culture was remained below 80%, and the cells were cultured at 37° C. in a 5% CO2 incubator. The cells before passage 6 were used for this experiment. HUVEC proliferation assay was done by following process. First, to prepare the hDLL4-coated plate, one day before conducting the experiment, rhDLL4 (R&D systems) was diluted in a carbonate buffer to a final concentration of 1 μg/ml in a 96-well plate (BD), where 100 μl of the diluted rhDLL4 was inoculated per each well, and the plate was incubated at 4° C. overnight. […] Using the apparatus SpectraMax 190 (Molecular Devices), the absorption of the sample at 450 nm-650 nm was measured and the levels of cell proliferation were compared among different test groups.

The target in assay [3] is T1, human DLL4-His bound to plate-coated Notch 1-Fc (Homo sapiens, UniProt Q9NR61).
T1 construct: The DLL4 antigen protein comprises 27th to 522nd amino acid residues of DLL4; purchased R&D System 1506-D4/CF
The assay is described as follows: ELISA-based solution competition (neutralization) test, DLL4 binding to hNotch-1-hFc. Conditions: antibody concentration of 0.1 μM. The method, then: The neutralization effects of the anti-DLL4 antibodies were evaluated using an ELISA-based solution competition test.
Each well of a 96-well microtiter plate (Nunc-Immuno Plate, NUNC, Rochester, N.Y.) was coated with 100 μl of 500 ng/ml of hNotch-1-hFc protein (R&D Systems) (diluted in PBS) at 4° C. overnight, and non-specific binding sites were blocked with BSA for 2 hours.
The anti-DLL4 antibody (purified protein) on the 96-well microtiter plate was premixed with serial dilutions of antigen protein (DLL4 antigen, 600 ng/m) at an antibody concentration ranging from 0 nM to 140 nM. The antigen/antibody mixture was incubated for 30 minutes, and then transferred to a microtiter plate precoated with the DLL4 receptor hNotch-1 protein (50 ng/well) in order to measure free […]. Then, the plate was incubated for 2 hours and washed five times with 0.05% tween 20-containing PBS. In order to detect the DLL4 antigen bound to the plate, an HRP-conjugated His […] polyclonal antibody reagent (Roche applied science) was diluted at a ratio of 1:500, and the washed microtiter plate was treated with the diluted antibody reagent, and then allowed to react at 37° C. for 1 hour. Then, color development was performed using a colorimetric substrate (3,3′,5,5′-tetramethylbenzidine; Sigma-Aldrich Co.), and the enzymatic reaction was stopped using 0.5 mol/l of sulfuric acid. The amounts of antibodies required to achieve a 50% decrease in human DLL4-His bound to plate-coated Notch 1-Fc (IC50) are shown in Table 1 below.
(In general: ELISA stands for enzyme-linked immunosorbent assay.)

“Also recorded” adds a separate entry of the source.

T1 sequence (Q9NR61 27-522): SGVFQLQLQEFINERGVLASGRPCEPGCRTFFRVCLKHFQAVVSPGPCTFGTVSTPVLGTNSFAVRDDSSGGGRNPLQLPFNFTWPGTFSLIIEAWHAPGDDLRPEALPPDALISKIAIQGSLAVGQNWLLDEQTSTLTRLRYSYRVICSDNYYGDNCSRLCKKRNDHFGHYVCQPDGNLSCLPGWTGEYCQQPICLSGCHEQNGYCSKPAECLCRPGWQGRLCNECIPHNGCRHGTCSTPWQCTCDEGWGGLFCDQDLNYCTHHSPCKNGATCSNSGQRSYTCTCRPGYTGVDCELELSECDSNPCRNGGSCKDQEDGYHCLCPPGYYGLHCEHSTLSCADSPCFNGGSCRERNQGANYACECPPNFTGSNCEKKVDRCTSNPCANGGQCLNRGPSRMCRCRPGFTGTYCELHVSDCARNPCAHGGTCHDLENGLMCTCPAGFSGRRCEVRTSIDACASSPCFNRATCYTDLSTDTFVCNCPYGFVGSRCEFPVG

B1: MLCK-2: human monoclonal anti-DLL4 antibody; heavy chain variable region SEQ ID NO: 5, light chain variable region SEQ ID NO: 19 (antibody, V domains shown)
VH: EVQLLESGGGLVQPGGSLRLSCAASGFTFSDYAMSWVRQAPGKGLEWVSWIYSGSGNKYYADSVKGRFTISRDNSKNTLYLQMNSLRAEDTAVYYCARADWPFDYWGQGTLVTVSS
VL: QSVLTQPPSASGTPGQRVTISCTGSSSNIGSNDVTWYQQLPGTAPKLLIYADSKRPSGVPDRFSGSKSGTSASLAISGLRSEDEADYYCGTWDYSLSAYVFGGGTKLTVL
modifications: a heavy chain variable region of MLCK-2; a light chain variable region of MLCK-2
Turning to B1, the “level of NICD / Notch signaling (western blotting)” value in assay [1] is given as “reduced the level of NICD; also recorded: inhibits Notch signaling”. Further, the “effect on DLL4-mediated inhibition of HUVEC proliferation” value in assay [2] is “blocks the DLL4-mediated suppression of HUVEC proliferation”. Further, in assay [3], the “blocking of the bindings between DLL4 and human Notch 1 receptor” value (“blocking” for short) was “blocked most of the bindings”.

B2: MLCK-4: human monoclonal anti-DLL4 antibody; heavy chain variable region SEQ ID NO: 11, light chain variable region SEQ ID NO: 27 (antibody, V domains shown)
VH: EVQLLESGGGLVQPGGSLRLSCAASGFTFSNYAMSWVRQAPGKGLEWVSWIYHGGGDTYYADSVKGRFTISRDNSKNTLYLQMNSLRAEDTAVYYCARGPNYTFGKPFDYWGQGTLVTVSS
VL: QSVLTQPPSASGTPGQRVTISCRGSPSNIGNNTVYWYQQLPGTAPKLLIYSDSQRPSGVPDRFSGSKSGTSASLAISGLRSEDEADYYCGSWDYSLSAYVFGGGTKLTVL
modifications: a heavy chain variable region of MLCK-4; a light chain variable region of MLCK-4
In the case of B2, the “blocking” value in assay [3] was “blocked most of the bindings”.

B3: MLCK-1: human monoclonal anti-DLL4 antibody; heavy chain variable region SEQ ID NO: 1, light chain variable region SEQ ID NO: 15 (antibody, V domains shown)
VH: EVQLLESGGGLVQPGGSLRLSCAASGFTFSDYAMSWVRQAPGKGLEWVSWIYSDDGNKYYADSVKGRFTISRDNSKNTLYLQMNSLRAEDTAVYYCARADPPFDYWGQGTLVTVSS
VL: QSVLTQPPSASGTPGQRVTISCTGSSSNIGSNNVSWYQQLPGTAPKLLIYSDNNRPSGVPDRFSGSKSGTSASLAISGLRSEDEADYYCATWDSSLNGYVFGGGTKLTVL
modifications: a heavy chain variable region of MLCK-1; a light chain variable region of MLCK-1
Consider B3, for which the “blocking” value in assay [3] is listed as “blocked most of the bindings”.

B4: MLCK-3: human monoclonal anti-DLL4 antibody; heavy chain variable region SEQ ID NO: 8, light chain variable region SEQ ID NO: 23 (antibody, V domains shown)
VH: EVQLLESGGGLVQPGGSLRLSCAASGFTFSDYAMSWVRQAPGKGLEWVSWIYYDSGSKYYADSVKGRFTISRDNSKNTLYLQMNSLRAEDTAVYYCARADLPFDYWGQGTLVTVSS
VL: QSVLTQPPSASGTPGQRVTISCSGSSSNIGNNAVTWYQQLPGTAPKLLIYSDNHRPSGVPDRFSGSKSGTSASLAISGLRSEDEADYYCGTWDASLSGYVFGGGTKLTVL
modifications: a heavy chain variable region of MLCK-3; a light chain variable region of MLCK-3
Take B4: the “blocking” value in assay [3] was “blocked most of the bindings”.
